The labels stand for the following.
B1: Rho guanine nucleotide exchange factor 9 (Rattus norvegicus (Rat)), Q9QX73 (parent)
chain: MQWIRGGSGMLITGDSIVSAEAVWDHVTMANRGVAFKAGDVIKVLDASNKDWWWGQIDDEEGWFPASFVRLWVNQEDGVEEGPSDVQNGHLDPNSDCLCLGRPLQNRDQMRANVINEIMSTERHYIKHLKDICEGYLKQCRKRRDMFSDEQLKVIFGNIEDIYRFQMGFVRDLEKQYNNDDPHLSEIGPCFLEHQDGFWIYSEYCNNHLDACMELSKLMKDSRYQHFFEACRLLQQMIDIAIDGFLLTPVQKICKYPLQLAELLKYTAQDHSDYRYVAAALAVMRNVTQQINERKRRLENIDKIAQWQASVLDWEGDDILDRSSELIYTGEMAWIYQPYGRNQQRVFFLFDHQMVLCKKDLIRRDILYYKGRIDMDKYEVIDIEDGRDDDFNVSMKNAFKLHNKETEEVHLFFAKKLEEKIRWLRAFREERKMVQEDEKIGFEISENQKRQAAMTVRKASKQKGRVGEEENQSLELKRACEVLQRLWSPGKKS
partner: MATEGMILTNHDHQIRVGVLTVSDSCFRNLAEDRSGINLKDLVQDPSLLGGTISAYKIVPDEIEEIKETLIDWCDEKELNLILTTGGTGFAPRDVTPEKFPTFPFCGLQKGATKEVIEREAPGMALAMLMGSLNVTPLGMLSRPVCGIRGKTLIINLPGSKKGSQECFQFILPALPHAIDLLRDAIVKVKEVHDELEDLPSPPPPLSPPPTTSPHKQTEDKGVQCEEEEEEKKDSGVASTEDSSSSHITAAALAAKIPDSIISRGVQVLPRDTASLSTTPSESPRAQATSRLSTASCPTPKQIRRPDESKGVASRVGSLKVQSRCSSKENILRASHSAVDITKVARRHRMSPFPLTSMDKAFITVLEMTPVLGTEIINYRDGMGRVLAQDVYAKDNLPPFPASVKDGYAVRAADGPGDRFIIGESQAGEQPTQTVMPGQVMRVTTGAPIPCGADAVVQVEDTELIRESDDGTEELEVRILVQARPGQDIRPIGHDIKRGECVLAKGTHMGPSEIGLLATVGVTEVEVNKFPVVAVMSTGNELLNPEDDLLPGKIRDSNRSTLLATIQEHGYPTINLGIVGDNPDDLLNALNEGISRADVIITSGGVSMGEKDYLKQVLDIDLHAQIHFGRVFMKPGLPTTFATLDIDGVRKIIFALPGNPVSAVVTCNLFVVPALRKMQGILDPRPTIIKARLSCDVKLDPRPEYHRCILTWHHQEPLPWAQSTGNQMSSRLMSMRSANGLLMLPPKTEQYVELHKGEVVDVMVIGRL

Here are results for two variants from IntAct's records for PubMed 16616186.

The variants in one test derive from B1. The note with it: with geph_rat Gphn.
R107A;D108A;E117A: the “effect of a mutation on the interaction” value is given as “with no effect”. Turning to R111A, the “effect of a mutation on the interaction” value was “disrupting interaction”.

The variants in the next test derive from B1. The conditions noted are these: with geph_rat Gphn. The source holds these as a separate data set.
R107A;D108A;E117A: the “effect of a mutation on the interaction” value was “disrupting interaction strength”.
